B1: 6mer-2-233 (peptide)
peptide: KWRQKR
B2: 6mer-2-256 (peptide)
peptide: KSQQKR
B3: 6mer-2-258 (peptide)
peptide: KRIYRR
B4: 6mer-2-262 (peptide)
peptide: KWILKR
B5: 6mer-2-264 (peptide)
peptide: KSQLKR
B6: 6mer-2-267 (peptide)
peptide: KLYSRR
B7: 6mer-2-266 (peptide)
peptide: RWQTKK
B8: 6mer-2-265 (peptide)
peptide: RRQTRK
B9: 6mer-2-251 (peptide)
peptide: KSQTKR
B10: 6mer-2-252 (peptide)
peptide: KVFRKK
B11: 6mer-2-263 (peptide)
peptide: RRICKR
B12: 6mer-2-253 (peptide)
peptide: KLRSRR
B13: 6mer-2-248 (peptide)
peptide: RSYTRR
B14: 6mer-2-254 (peptide)
peptide: KRIQRR
B15: 6mer-2-268 (peptide)
peptide: RQICKK
B16: 6mer-2-250 (peptide)
peptide: KRRRKK
B17: 6mer-2-259 (peptide)
peptide: RVQSKR
B18: 6mer-2-247 (peptide)
peptide: KGYQKK
B19: 6mer-2-260 (peptide)
peptide: RRFCKR
B20: 6mer-2-246 (peptide)
peptide: KWISKK
B21: 6mer-2-249 (peptide)
peptide: RGLRKR
B22: 6mer-2-255 (peptide)
peptide: RLRRKK
B23: 6mer-2-257 (peptide)
peptide: KRFCRK
B24: 6mer-2-261 (peptide)
peptide: RWYTKK
B25: 6mer-2-491 (peptide)
peptide: KRICKR
B26: 6mer-2-480 (peptide)
peptide: RRFTKK
B27: 6mer-2-495 (peptide)
peptide: KLLCKK
B28: 6mer-2-500 (peptide)
peptide: KRICRR
B29: 6mer-2-475 (peptide)
peptide: KRFCRR
B30: 6mer-2-496 (peptide)
peptide: RVRYRK
B31: 6mer-2-479 (peptide)
peptide: KWRLKK
B32: 6mer-2-470 (peptide)
peptide: RLRRRK
B33: 6mer-2-477 (peptide)
peptide: RSRTRR
B34: 6mer-2-487 (peptide)
peptide: KSYTKR
B35: 6mer-2-482 (peptide)
peptide: KGQTRR
B36: 6mer-2-478 (peptide)
peptide: KWYTRK
B37: 6mer-2-492 (peptide)
peptide: RLIQKK
B38: 6mer-2-489 (peptide)
peptide: RVISKK
B39: 6mer-2-497 (peptide)
peptide: KSYTRR
B40: 6mer-2-484 (peptide)
peptide: RWYTKR
B41: 6mer-2-481 (peptide)
peptide: RQRYKK
B42: 6mer-2-476 (peptide)
peptide: KGIRKK
B43: 6mer-2-473 (peptide)
peptide: RGRLRK
B44: 6mer-2-471 (peptide)
peptide: KWISRR
B45: 6mer-2-494 (peptide)
peptide: KGLLRR
B46: 6mer-2-493 (peptide)
peptide: KGVRRK
B47: 6mer-2-490 (peptide)
peptide: RRYQKK
B48: 6mer-2-468 (peptide)
peptide: RSFSKR
B49: 6mer-2-498 (peptide)
peptide: KGLCRR
B50: 6mer-2-485 (peptide)
peptide: RQIQKR
B51: 6mer-2-472 (peptide)
peptide: RSRLRR
B52: 6mer-2-469 (peptide)
peptide: RLRTKK
B53: 6mer-2-486 (peptide)
peptide: KQQSKK
B54: 6mer-2-499 (peptide)
peptide: RLFTKR
B55: 6mer-2-483 (peptide)
peptide: RRYLKK
B56: 6mer-2-488 (peptide)
peptide: KVYRRK
B57: 6mer-2-474 (peptide)
peptide: RWQQRR

Each binder was assayed against acetylcholine receptor (assay: SPR, AchR immobilized on chip).

Binding affinity (RU) | Binder
190 RU | B1

What follows are binders tested against acetylcholine receptor (assay: SPR, AchR immobilized on CM5 chip, peptide 10 µM).

Binding affinity (RU) | Binder
142 RU | B2
125 RU | B3
142 RU | B4
127 RU | B5
141 RU | B6
131 RU | B7
135 RU | B8
142 RU | B9
148 RU | B10
145 RU | B11
145 RU | B12
154 RU | B13
148 RU | B14
139 RU | B15
145 RU | B16
128 RU | B17
146 RU | B18
190 RU | B1
142 RU | B19
123 RU | B20
136 RU | B21
139 RU | B22
144 RU | B23
121 RU | B24

Each binder was assayed against acetylcholine receptor (assay: SPR, receptor immobilised on chip, peptide at 10 µM).

Binding affinity | Binder
135 RU | B25
147 RU | B26
121 RU | B27
146 RU | B28
139 RU | B29
144 RU | B30
154 RU | B31
153 RU | B32
135 RU | B33
121 RU | B34
154 RU | B35
145 RU | B36
148 RU | B37
142 RU | B38
148 RU | B39
148 RU | B40
131 RU | B41

Binding affinity | Binder
148 RU | B42
131 RU | B43
136 RU | B44
144 RU | B45
123 RU | B46
145 RU | B47
133 RU | B48
127 RU | B49
148 RU | B50
148 RU | B51
153 RU | B52
121 RU | B53
145 RU | B54
121 RU | B55
146 RU | B56
128 RU | B57
